In paper PMC5619814:

Columns and labels:
[1] = molecular target: soluble human neonatal Fc receptor (hFcRn) (human) (UniProt P55899); assay: SPR; ProteOn XPR36, GLC chip; rbFcRn (about 1200 RU) or hFcRn (about 1600 RU) immobilised by amine coupling; IgG injected at 8.34-133 nM, 100 μl/min, PBS-T pH 6.0, 25°C; heterogeneous ligand model (two classes of non-interacting sites)
[2] = molecular target: soluble rabbit neonatal Fc receptor (rbFcRn), heterodimer of truncated rbFcRn α-chain and rabbit β2-microglobulin (rabbit); assay: as above
[3] = molecular target: human IgG1 (Omalizumab) (human); assay: SPR; ProteOn XPR36, GLC chip; rbIgG (about 1900 RU) or hIgG1 (about 2100 RU) immobilised by amine coupling; rbFcRn or hFcRn injected at 37.5-600 nM, 100 μl/min, PBS-T pH 6.0, 25°C; Langmuir 1:1 model
[4] = molecular target: soluble rabbit neonatal Fc receptor (rbFcRn), heterodimer of truncated rbFcRn α-chain and rabbit β2-microglobulin (rabbit)

Substance: human IgG2 (Abcam) (antibody)
- KD1 (high affinity class of sites, heterogeneous ligand model) [1]: 5.43 nM
- KD2 (low affinity class of sites, heterogeneous ligand model) [1]: 34.7 nM
- KD1 (high affinity class of sites, heterogeneous ligand model) [2]: 7.46 nM
- KD2 (low affinity class of sites, heterogeneous ligand model) [2]: 106 nM

Substance: soluble human neonatal Fc receptor (hFcRn) (from UniProt P55899 24-297; P61769 21-119) (complex)
- Kd [3]: 4.3 nM
- koff [3]: 0.000592 s⁻¹
- kon [3]: 138000 M⁻¹ s⁻¹

Substance: soluble rabbit neonatal Fc receptor (rbFcRn), heterodimer of truncated rbFcRn α-chain and rabbit β2-microglobulin (complex)
- Kd [3]: 1.19 nM
- koff [3]: 0.00039 s⁻¹
- kon [3]: 327000 M⁻¹ s⁻¹

Substance: human IgG4 (Abcam) (antibody)
- KD1 (high affinity class of sites, heterogeneous ligand model) [1]: 2.36 nM
- KD2 (low affinity class of sites, heterogeneous ligand model) [1]: 20.2 nM
- KD1 (high affinity class of sites, heterogeneous ligand model) [2]: 3.86 nM
- KD2 (low affinity class of sites, heterogeneous ligand model) [2]: 53.5 nM

Substance: human IgG1 (Omalizumab) (antibody)
- FcRn-mediated recycling assay in rabbit peritoneal macrophages: relative fluorescence intensity of Alexa 488-hIgG1 left in the cells after 20 min pulse at pH 6.0 and 30 min chase at pH 7.4 [4]: 60%
- KD1 (high affinity class of sites, heterogeneous ligand model) [1]: 9.99 nM
- KD2 (low affinity class of sites, heterogeneous ligand model) [1]: 57.2 nM
- KD1 (high affinity class of sites, heterogeneous ligand model) [2]: 12.9 nM
- KD2 (low affinity class of sites, heterogeneous ligand model) [2]: 71.9 nM

Substance: human IgG3 (Abcam) (antibody)
- KD1 (high affinity class of sites, heterogeneous ligand model) [1]: 6.06 nM
- KD2 (low affinity class of sites, heterogeneous ligand model) [1]: 17.4 nM
- KD1 (high affinity class of sites, heterogeneous ligand model) [2]: 2.57 nM
- KD2 (low affinity class of sites, heterogeneous ligand model) [2]: 59.2 nM
